Experimental data: patent US20080241867A1

Target: hybrid GFP construct containing the protease cleavage sequence SVPSGCG (SEQ ID NO:21) followed by histidine residues (Aequorea victoria (Water jellyfish) (Mesonema victoria)) [GFP: P42212]
Assay: cell-based or functional assay

## Pancreatin
  Micrograms of GFP Released by Protease (overnight, IMAC beads): 137 µg
